According to PMC3199381 (The EMBO Journal, 2011):
Where two headings read alike, the source gives them in different places. One block for each compound: values may come before it.

Assays:
MglA·MglB^A5 complex = molecular target: T1, MglA·MglB^A5 complex (Thermus thermophilus, UniProt Q5SJ82); assay: X-ray crystal structure, […] Å; type: binding; settings: with AlF4- as transition state mimic
T1 sequence (Q5SJ82 1-196): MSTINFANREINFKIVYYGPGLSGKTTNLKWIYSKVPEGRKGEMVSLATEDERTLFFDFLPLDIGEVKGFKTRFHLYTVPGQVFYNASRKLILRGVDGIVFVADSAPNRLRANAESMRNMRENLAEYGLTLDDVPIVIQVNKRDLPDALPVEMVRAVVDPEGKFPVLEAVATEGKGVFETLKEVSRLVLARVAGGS
T1 sequence (Q5SJ83 6-139 E14A/R15A/G65S/R124A/E127A/R131A partner): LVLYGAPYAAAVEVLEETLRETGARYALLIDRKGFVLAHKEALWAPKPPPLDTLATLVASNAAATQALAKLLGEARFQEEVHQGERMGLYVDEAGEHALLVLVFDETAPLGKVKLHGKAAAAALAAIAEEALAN

T.t.MglA = molecular target: T2, T.t.MglA (Thermus thermophilus, UniProt Q5SJ82); assay: X-ray crystal structure, […] Å; type: binding; settings: no Mg2+ detected at the nucleotide
T2 sequence (Q5SJ82 1-196): T1 sequence (Q5SJ82 1-196)

[1] = molecular target: MglB from Thermus thermophilus HB8, residues 6-139 (Thermus thermophilus HB8); assay: SEC
[2] = molecular target: MglA from Thermus thermophilus HB8, wild type (Thermus thermophilus HB8); assay: SEC
[3] = molecular target: MglA from Thermus thermophilus HB8, wild type (Thermus thermophilus HB8); assay: fluorescence polarisation
[4] = molecular target: MglA from Thermus thermophilus HB8, wild type (Thermus thermophilus HB8); assay: fluorescence polarisation; remark: listed apart in the source
[5] = molecular target: MglB from Thermus thermophilus HB8, residues 6-139 (Thermus thermophilus HB8); assay: crystal structure
[6] = molecular target: MglB from Thermus thermophilus HB8, residues 6-139 (Thermus thermophilus HB8); assay: crystal structure; remark: listed apart in the source
[7] = molecular target: MglA from Thermus thermophilus HB8, wild type (Thermus thermophilus HB8); assay: crystal structure

X-ray crystal structure, 2.2 Å (MglA·MglB^A5 complex): 3T12 (MglA·GDP·AlF4-·MglB^A5)
X-ray crystal structure, 1.9 Å (T.t.MglA): 3T1O (MglA·GDP)
Compound: Nc1nc2c(ncn2[C@@H]2O[C@H](COP(=O)(O)OP(=O)(O)O)[C@@H](O)[C@H]2O)c(=O)[nH]1 [GDP]

stoichiometry N [1]: 2
stoichiometry N (MglB per MglA) [2]: 2
Kd [3]: 2 µM
Kd [4]: 3.2 µM
stoichiometry N (MglB monomers per MglA) [4]: 2
stoichiometry N [5]: 4
stoichiometry N [6]: 2
Compound: MglB from Thermus thermophilus HB8, residues 6-139 (domain or fragment)

stoichiometry N (MglB per MglA) [7]: 2
Compound: MglB^A5 (E14/R15/R124/E127/R131A), residues 6-139 (domain or fragment)

Kd [4]: 34.6 µM
Compound: MglB^A68/72R, residues 6-139 (domain or fragment)
